Data reported in patent publication US20250025566A1, “PEPTIDE-DRUG CONJUGATES FOR TREATMENT OF NEURODEGENERATIVE DISEASES” (KØBENHAVNS UNIVERSITET, priority 2021, published 2025).
Square brackets hold non-standard residues; d marks the D form. Side chains are listed from the residue outwards. Ends that are not written are not given here. * marks the point of attachment. memantine = CC12CC3CC(C)(C1)CC(N*)(C3)C2; disulfide linker = not defined here; Pen = CC(C)(S)[C@H](N)C(=O)O

How the values were obtained:
[1] = tested on: primary rat hippocampal neurons; assay: Neuroprotection in primary hippocampal neurons (NMDA-induced neurotoxicity, LDH activity); format: cell-based; details: NMDA 100 μM, 24 hours, GLP-1 1 μM
Method: Primary rat hippocampal neurons were incubated with either buffer, NMDA (to induce neurotoxicity), NDMA+GLP-1 or NMDA+GLP-1/memantine conjugate for 24 hours. Media was harvested and analysed for Lactate Dehydrogenase (LDH) activity as an indirect measure of cellular cytotoxicity.
Primary cultures of hippocampal neurons were prepared from Sprague-Dawley rat fetuses (E18) and cells were diluted in Neurobasal medium containing B27 supplement (5×10^5 cells/mL) in a Poly-L-Lysin pre-coated 24-well cell culture plate. The neurons were kept at 37° C. in a humidified incubator with 5% C02 atmosphere. After 8 days in vitro, cultures were treated with either vehicle, NMDA (100 μM), NMDA+GLP-1 (1 μM) or NMDA+GLP-1/Memantine for 24 hours. Cell culture medium (50 μL) was dispatched to a 96-well ELISA plate and analyzed for Lactate Dehydrogenase (LDH) activity (CytoTox-96, Nonradioactive Cytotoxicity assay, Promega) according to the manufacturer's protocol.

[2] = tested on: pro-inflammatory markers IL-1b, IL-6 and TNF-α; assay: Gene expression of pro-inflammatory markers in hippocampus of 5×FAD mice (qPCR); format: in vivo; details: once-daily subcutaneous, 49 days
Method: Expression (as measured by mRNA) of pro-inflammatory markers, IL-1b, IL-6 and TNF-α increased across the board in the 5×FAD AD mouse model.
Experiments were conducted using female 5×FAD (Jackson Laboratory, 34840-JAX) mice kept on a chow diet (Altromin #1310, Lage, Germany). The pharmacological studies were initiated at 8-week of age and the mice treated with once-daily subcutaneous injections of GLP-1/memantine or saline (control) for 49 days with weekly measurements of body weight. Specifically, compounds were administered at a volume of 5 μL per gram, mice group-housed (n=2-5 mice per cage) and maintained on a 12-hour light-dark cycle (light 6 am-[…]) at a temperature of 21-23° C. […]
Hippocampal tissue from Example 3 was homogenized in a Trizol reagent (QIAzol Lysis Reagent, Qiagen) using a stainless steel bead (Qiagen) and a TissueLyser LT (Qiagen) for 3 min at 20 Hz. […] After RNA extraction, RNA content was measured using a NanoDrop 2000 (Thermo Fisher) and 500 ng of RNA was converted into cDNA by mixing FS buffer and DTT (Thermo Fisher) with Random Primers (Sigma-Aldrich) and incubated for 3 min at 70° C. followed by addition of dNTPs, RNase out, Superscript III (Thermo Fisher) and placed in a thermal cycler for 5 min at 25° C., 60 min at 50° C., 15 min at 70° C., and kept at −20° C. until further processing. […]

[3] = Body weight progression of 5×FAD Alzheimer's disease mouse model; format: in vivo; details: female 5×FAD mice, 100 nmol/kg/day subcutaneous daily, 49 days
Method: Female wild-type (WT) control mice+vehicle treatment (n=12), 5×FAD AD mice+vehicle treatment and 5×FAD AD mice+GLP-1/memantine (100 nmol/kg/day) treatment were subcutaneously injected daily for 49 days following which brain regions of the mice were dissected and saved for ex vivo analyses.
Experiments were conducted using female 5×FAD (Jackson Laboratory, 34840-JAX) mice kept on a chow diet (Altromin #1310, Lage, Germany). The pharmacological studies were initiated at 8-week of age and the mice treated with once-daily subcutaneous injections of GLP-1/memantine or saline (control) for 49 days with weekly measurements of body weight. Specifically, compounds were administered at a volume of 5 μL per gram, mice group-housed (n=2-5 mice per cage) and maintained on a 12-hour light-dark cycle (light 6 am-[…]) at a temperature of 21-23° C. For week 5 and 6, the mice were single-housed and transferred to a digitally ventilated cage system. For week 7, the mice were re-grouped in groups identical to weeks 0 to 4. Finally, mice were euthanized on day 49, tissues harvested, snap-frozen using liquid nitrogen and stored at −80° C. prior to analyses.

[4] = tested on: 5×FAD mice; assay: Number of amyloid plaques in frontal cortex and hippocampus of 5×FAD mice (Thioflavine S); format: in vivo; details: once-daily subcutaneous, 49 days, vs saline
Text: Amyloid plaques are commonly found in subjects suffering from Alzheimer's and is caused by abnormal levels of the naturally occurring protein beta-amyloid 42 which clump together to form plaques that collect between neurons and disrupt cell function. Thus, patients suffering from Alzheimer's display elevated levels of amyloid plaques. […] Thus, without being bound by any particular theory, the inventors postulate that the conjugated molecule according to the present invention has a neuroprotective role.
Experiments were conducted using female 5×FAD (Jackson Laboratory, 34840-JAX) mice kept on a chow diet (Altromin #1310, Lage, Germany). The pharmacological studies were initiated at 8-week of age and the mice treated with once-daily subcutaneous injections of GLP-1/memantine or saline (control) for 49 days. Specifically, compounds were administered at a volume of 5 μL per gram, mice group housed (n=2-5 mice per cage) and maintained on a 12-hour light-dark cycle (light 6 am-[…]) at a temperature of 21-23° C. For week 5 and 6, the mice were single-housed and transferred to a digitally ventilated cage system. […] Every 6th slide through hippocampus (bregma: −2.80 mm to −0.94 mm) and frontal cortex (bregma: 0.14 mm to 2.96 mm) were collected and stained with Thioflavine S to quantify amyloid plaque deposition.

| Substance | NMDA-induced neurotoxicity (Lactate Dehydrogenase activity in media as indirect measure of cytotoxicity) [1] | expression (mRNA) of pro-inflammatory markers IL-1b, IL-6 and TNF-α in hippocampus [2] | body weight progression [3] | number of amyloid plaques in frontal cortex and hippocampus [4] |
| --- | --- | --- | --- | --- |
| GLP-1 Pen40/memantine: GLP-1 peptide of SEQ ID NO:1 with Pen40, conjugated to memantine via disulfide linker (penicillamine linked) (HAEGTFTSDVSSYLEEQAAKEFIAWLVKGGPSSGAPPPS[Pen]([disulfide linker-memantine])-NH2; reading uncertain; listed as Homo sapiens) | prevents the NMDA-induced neurotoxicity | completely abolishes the induction of inflammation | elicits only a transient weight loss | reduced formation of amyloid plaques |
| GLP-1: GLP-1 peptide alone, the unconjugated peptide control in the neuroprotection test [reference compound] | but not GLP-1 peptide alone, prevents the NMDA-induced neurotoxicity |  |  |  |
